Experimental data from patent US20040063184A1, “Fermentation processes and compositions” (priority 2002, published 2004).

Tests used:
Type in all cases: cell-based
yeast [1] = experiment: Example 4: LSF ethanol fermentation with lipases, purified lipases, ferric sulfate; settings: Candida antarctica lipase 400 LU/g DS, purified lipases 100 LU/g DS
Description: Example 4 was conducted on dry milled corn according to a simultaneous liquefaction5 saccharification-fermentation (LSF) protocol. The experiment was carried out on ground yellow corn using a glucoamylase and alpha amylase for fermenting ethanol with and without lipase, as described in examples 2 and 3. Fermentations were carried out at pH=5.0, 32° C. for several hours. In addition to Candida antarctica lipase and inactivated Candida antarctica lipase, feric sulfate and purified lipases from Candida cylindracea lipase and Candida antarctica lipase A, were also compared. Four times less of the purified lipase was used.

yeast [2] = experiment: Example 14: LSF ethanol fermentation with and without laccase; settings: additive with glucoamylase: 0.1 M NaCl & 0.7 GAU/g DS, NZ 525 0.5% DS & 0.9 GAU/g DS, laccase 0.2% DS & 1.0 GAU/g DS
Description: The addition of a laccase was tested under anaerobic fermentation conditions analogous to ethanol fermenting experiments. The experiment was conducted on dry milled yellow corn according to a simultaneous liquefaction-saccharification-fermentation (LSF) protocol. The experiment was carried out using a glucoamylase (Spirizyme plus, available from Novozymes A/S) for fermenting ethanol, with and without laccase. Fermentations were carried out at pH=5.0, 32° C. for several hour. The process was monitored with time and analyzed for CO2 weight loss, percent ethanol produced and theoretical conversion of the starch.

yeast [3] = experiment: Example 2: LSF ethanol fermentation of ground yellow corn with esterases; settings: esterase 200 U/g DS
Description: Example 2 was conducted on dry milled ground yellow corn according to a simultaneous liquefaction-saccharification-fermentation (LSF) protocol. The experiment was carried out using a glucoamylase (Spirizyme Plus, available from Novozymes A/S) in an amount of 0.8 GAU/g DS and a fungal alpha amylase (SP288, available from Novozymes A/S) in an amount of 2.6 AFAU/g DS for fermenting ethanol along with the addition of:
(A) lipase (LIPOLASE, available from Novozymes A/S),
(B) Candida antarctica lipase,
(C) cutinase (JC 492, available from Novozymes A/S)
(D) phospholipase (LECITASE available from Novozymes A/S),
(E) inactivated Candida antarctica lipase (inactivated by boiling for three hours), and
(F) a control (glucoamylase and amylase without esterase addition).
The esterases were added in an amount corresponding to 200 U/g DS. Fermentations were carried out at pH=5.0, 32° C. for several hours. The process was monitored with time and ana20 lyzed for CO2 weight loss, percent ethanol produced and theoretical conversion of the starch.

Ethanol Red yeast [4] = experiment: Example 8: as Example 6 with protease in the fermentation medium
Description: This experiment was carried out using the same experimental conditions and enzyme concentrations described in Example 6, with the exception that protease (Novozyme 50006, 0.007% DS) was also added to the fermentation medium with an increased sample volume.
To eliminate the possibility that a substance in the CALB formulation was contributing to the effect obtained, inactivated CALB was also used. A control was prepared by inactivating CALB by boiling for 3 hours. Upon completion of boiling, the volume was adjusted to the initial value with DI water, and sample was spun down at 3,000 rpm for 20 min. The liquid layer was forced through the 0.45-μm filter. The enzyme was thereby completely inactivated.

Ethanol Red yeast [5] = experiment: Example 10: Lipolase 100 T versus purified Lipolase
Description: In this example, Lipolase 100 T and purified Lipolase (both available from Novozymes A/S) were compared. The Experimental conditions were as follows: Ethanol Red yeast, 36% DS, 1.5 GAU/g DS Spirizyme Fuel, 0.8 AFAU/g DS SP 288. Yeast was propagated with maltodextrin and protease. Fermentation was carried out in 25-ml fermentors at 32.2° C. without mixing for 72 h. A control was run as described, without the addition of lipase.

Molecule: O=S(=O)([O-])[O-].O=S(=O)([O-])[O-].O=S(=O)([O-])[O-].[Fe+3].[Fe+3] [Fe2(SO4)3]
- Calculated ethanol, % v/v (yeast [1]; 24 h): 11.58 ± 0.13 % v/v
- Efficiency, % (yeast [1]; 24 h): 52.79 ± 0.67%
- Calculated ethanol, % v/v (yeast [1]; 48 h): 16.87 ± 0.43 % v/v
- Efficiency, % (yeast [1]; 48 h): 81.84 ± 2.57%
- Calculated ethanol, % v/v (yeast [1]; 72 h): 18.82 ± 0.91 % v/v
- Efficiency, % (yeast [1]; 72 h): 91.00 ± 2.45%

Molecule: [Cl-].[Na+] [NaCl]
- HPLC ethanol, % v/v (yeast [2]; 7 h): 1.88 % v/v
- HPLC ethanol, % v/v (yeast [2]; 23 h): 7.91 % v/v
- HPLC ethanol, % v/v (yeast [2]; 29 h): 8.78 % v/v
- HPLC ethanol, % v/v (yeast [2]; 47 h): 10.30 % v/v
- HPLC ethanol, % v/v (yeast [2]; 55 h): 10.94 % v/v
- HPLC ethanol, % v/v (yeast [2]; 119 h): 14.61 % v/v

B1: Candida antarctica lipase inactive: Candida antarctica lipase inactivated by boiling for three hours (protein, UniProt P41365 26-342, looked up)
Lipase B: LPSGSDPAFSQPKSVLDAGLTCQGASPSSVSKPILLVPGTGTTGPQSFDSNWIPLSTQLGYTPCWISPPPFMLNDTQVNTEYMVNAITALYAGSGNNKLPVLTWSQGGLVAQWGLTFFPSIRSKVDRLMAFAPDYKGTVLAGPLDALAVSAPSVWQQTTGSALTTALRNAGGLTQIVPTTNLYSATDEIVQPQVSNSPLDSSYLFNGKNVQAQAVCGPLFVIDHAGSLTSQFSYVVGRSALRSTTGQARSADYGITDCNPLPANDLTPEQKVAAAALLAPAAAAIVAGPKQNCEPDLMPYARPFAVGKRTCSGIVTP
modifications: heat-inactivated by boiling
- Calculated ethanol, % v/v (yeast [3]; 24 h): 11.43 ± 0.08 % v/v
- Efficiency, % (yeast [3]; 24 h): 52.88 ± 0.40%
- Calculated ethanol, % v/v (yeast [3]; 48 h): 16.88 ± 0.15 % v/v
- Efficiency, % (yeast [3]; 48 h): 83.18 ± 0.89%
- Efficiency, % (yeast [3]; 72 h): 90.89 ± 0.25%
- HPLC ethanol, % v/v (yeast [3]; 72 h): 19.49 ± 0.04 % v/v
- effect on ethanol yield and efficiency (Ethanol Red yeast [4]): no significant difference between ethanol yield of control samples and ethanol yield of samples treated with inactivated CALB
- Calculated ethanol, % v/v (yeast [1]; 24 h): 10.59 ± 0.16 % v/v
- Efficiency, % (yeast [1]; 24 h): 49.33 ± 0.85%
- Calculated ethanol, % v/v (yeast [1]; 48 h): 16.91 ± 0.30 % v/v
- Efficiency, % (yeast [1]; 48 h): 84.73 ± 1.77%
- Calculated ethanol, % v/v (yeast [1]; 72 h): 18.65 ± 0.40 % v/v
- Efficiency, % (yeast [1]; 72 h): 95.49 ± 2.53%

B2: Lipolase (purified): purified Lipolase, available from Novozymes A/S (protein, UniProt O59952 23-291, looked up)
Lipase: EVSQDLFNQFNLFAQYSAAAYCGKNNDAPAGTNITCTGNACPEVEKADATFLYSFEDSGVGDVTGFLALDNTNKLIVLSFRGSRSIENWIGNLNFDLKEINDICSGCRGHDGFTSSWRSVADTLRQKVEDAVREHPDYRVVFTGHSLGGALATVAGADLRGNGYDIDVFSYGAPRVGNRAFAEFLTVQTGGTLYRITHTNDIVPRLPPREFGYSHSSPEYWIKSGTLVPVTRNDIVKIEGIDATGGNNQPNIPDIPAHLWYFGLIGTCL
- Change, % v/v vs. control (efficiency) (Ethanol Red yeast [5]; 1 LU/g DS): +1.00 % v/v
- Change, % v/v vs. control (ethanol) (Ethanol Red yeast [5]; 1 LU/g DS): +0.31 % v/v
- Efficiency, % (Ethanol Red yeast [5]; 1 LU/g DS): 84.00%
- Ethanol, % v/v in beer (Ethanol Red yeast [5]; 1 LU/g DS): 18.41 % v/v
- Change, % v/v vs. control (efficiency) (Ethanol Red yeast [5]; 10 LU/g DS): +0.49 % v/v
- Change, % v/v vs. control (ethanol) (Ethanol Red yeast [5]; 10 LU/g DS): +0.52 % v/v
- Efficiency, % (Ethanol Red yeast [5]; 10 LU/g DS): 83.49%
- Ethanol, % v/v in beer (Ethanol Red yeast [5]; 10 LU/g DS): 18.62 % v/v
- Change, % v/v vs. control (efficiency) (Ethanol Red yeast [5]; 100 LU/g DS): +0.57 % v/v
- Change, % v/v vs. control (ethanol) (Ethanol Red yeast [5]; 100 LU/g DS): +0.14 % v/v
- Efficiency, % (Ethanol Red yeast [5]; 100 LU/g DS): 83.57%
- Ethanol, % v/v in beer (Ethanol Red yeast [5]; 100 LU/g DS): 18.24 % v/v
